Reference: US7648964B2, “Use of lacritin in promoting ocular cell survival” (University of Virginia Patent Foundation, priority 2004, dated 2010)

Legend:
[1] = test system: 48 kDa band in HSG cells; test: Tyrosine phosphorylation of 48 kDa band, HSG cells; format: cell-based, human
Procedure: Freshly isolated rat lacrimal acinar cells, and HSG (human salivary gland) ductal and HCE (human corneal epithelial) cell lines were used to study lacritin function. For secretion studies, rat acinar cells were plated serum-free overnight on wells co-coated with 0.05 μM laminin 1 (to ensure adhesion) and 0 to 20 μM lacritin, or alternatively with laminin-1 (0.05 μM) and treated the next day with serum-free medium containing 0 to 162 ng/ml of soluble lacritin for four hours. Unstimulated and stimulated (carbachol 10^−4 M/VIP 10^−8 M) secretions were then collected, assessed (peroxidase assay) and normalized to μg cellular DNA. To study tyrosine phosphorylation, overnight serum-free cultures of both rat lacrimal acinar and HSG cells were washed and treated with 10 ng/ml of soluble lacritin for 0.5, 2.5, 10, and 30 minutes. Py(20) anti-phosphotyrosine antibody immunoprecipitation of cell lysates was then examined in Western blots of 7% SDS PAGE gels using Py(20) and ECL for detection. […] Using an inverted Zeiss 510 LSM for visualization, 50 second baseline images were first recorded. While the laser was running, lacritin was added (final concentration 4 and 40 ng/ml) and the response continually monitored every 786 msec for a minimum of 200 sec.

[2] = test system: HSG cells; test: FACS analysis of apoptosis (sub G0/G1) of HSG cells in nutrient depleted medium; format: cell-based, human
Procedure: HSG cells were cultured for different times in alpha-MEM medium, with or without lacritin (0.4 nM), then fixed with ice-old 70% ethanol and stained with propidium iodide at saturating condition, and examined by FACS. FIG. 3A is a bar graph of the resulting data plotting the number of cells entering apoptosis (the sub G0/G1 population) vs. time. After 24 hrs, cells without lacritin show very large DNA fragmentation or apoptosis. FIGS. 3B and 3C are graphic representations of flow cytometry readings showing that significant DNA fragmentation occurs in the cells cultured in the absence of lacritin (a sub G0/G1 population is indicated as a left shoulder of the large peak of FIG. 3B) but not present in FIG. 3C).
Subsequent flow cytometry (FACS) analysis was carried out to monitoring the time course of cell death and survival promotion function of lacritin. […] Lacritin protected cells from death in nutrient depleted medium (alpha MEM) up to 96 hours or longer. Cells cultured in the absence of lacritin undergo apoptosis starting at about 24 hours and over 50% cells are apoptotic after 48 hours of culture.

[3] = test system: human submandibular ductal ('HSG') cells; test: HSG ductal cell number in serum-free medium after four days; format: cell-based; details: BSA 10 ng/ml control
Procedure: FIGS. 2A and 2B represent lacritin-induced proliferation and tyrosine phosphorylation. FIG. 2A is a graphic representation of the number of human salivary gland (HSG) cells was determined four days after administering various amounts of lacritin (0 to 10 ng/ml of lacritin) to HSG cells in serum-free medium. FIG. 2B is a bar graph representing the proliferation of HSG cells upon administration of BSA (lane 1; 10 ng/ml) or serum (lane 2; 10%) was added for the same period of time. All experiments were performed on laminin-1-(0.05 μM) coated wells.
Quiescent human submandibular ductal (‘HSG’) cells were cultured in serum-free media containing increasing amounts of lacritin and cell proliferation was studied.

[4] = test system: bcl-2; test: Antibody array screen, salivary ductal cells; format: cell-based, human; details: lacritin 10 ng/ml, 1 minute; tyrosine phosphorylation as gauge
Procedure: (§1) Lacritin's function in cell survival was first assessed in an antibody array screen. Serum-free cultures of salivary ductal cells were treated either with recombinant lacritin at 10 ng/ml or an equal volume of 1×PBS (dialysis medium for recombinant lacritin) for 1 minute.

[5] = test system: FAS/APO-1; test: Antibody array screen, salivary ductal cells; format: cell-based, human; details: lacritin 10 ng/ml, 1 minute; tyrosine phosphorylation as gauge
Procedure: as §1

B1: lacritin: recombinant human lacritin from E. coli; mature 119 residue fragment (SEQ ID NO:10) of native lacritin SEQ ID NO:4 (protein, listed as Homo sapiens)
chain: EDASSDSTGADPAQEAGTSKPNEEISGPAEPASPPETTTTAQETSAAAVQGTAKVTSSRQELNPLKSIVEKSILLTEQALAKAGKGMHGGVPGGKQFIENGSEFAQKLLKKFSLLKPWA
tyrosine phosphorylation of a 48 kDa band [1]: promoted the transient tyrosine phosphorylation
DNA fragmentation ([2]; lacritin 10 ng/ml, alpha MEM): no noticeable DNA fragmentation
duration of protection from death ([2]; nutrient depleted medium (alpha MEM)): ≥ 96 h
ductal cell number relative to BSA negative control [3]: more than twofold
increase in bcl-2 tyrosine phosphorylation [4]: 11%
change in FAS/APO-1 levels [5]: −81%
